Experimental data published in patent US20220323619A1 (TELIX INTERNATIONAL, published 2022).
Numbering of substitutions follows the chain as printed. In names and notes the source's numbering stands. Each block holds one binder with its values, some of them ahead of it.

Assays:
[1] = molecular target: T1, human FcγRI (Sino Biological, His-tagged) (human, UniProt P12314 16-288, limits assumed); assay: Biacore single cycle, His-tagged receptor captured on anti-His CM5 chip, antibody analyte; 1:1 kinetics
T1 construct: Bought product; also called FcgRI; not shown: His tag
T1 sequence (P12314 16-288 limits assumed): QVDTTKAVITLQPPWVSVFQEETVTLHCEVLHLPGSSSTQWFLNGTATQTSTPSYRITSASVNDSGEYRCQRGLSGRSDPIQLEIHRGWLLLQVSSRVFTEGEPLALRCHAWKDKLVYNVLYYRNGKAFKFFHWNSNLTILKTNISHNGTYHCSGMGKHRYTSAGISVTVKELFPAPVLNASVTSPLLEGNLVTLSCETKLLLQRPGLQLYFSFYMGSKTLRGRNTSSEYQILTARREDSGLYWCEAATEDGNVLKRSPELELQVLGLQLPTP

[2] = molecular target: T2, human FcγRIIa 167R (Sino Biological, His-tagged) (human, UniProt P12318 34-218, limits assumed); assay: Biacore single cycle, His-tagged receptor captured on anti-His CM5 chip, antibody analyte; steady state
T2 construct: not shown: His tag
T2 sequence (looked up): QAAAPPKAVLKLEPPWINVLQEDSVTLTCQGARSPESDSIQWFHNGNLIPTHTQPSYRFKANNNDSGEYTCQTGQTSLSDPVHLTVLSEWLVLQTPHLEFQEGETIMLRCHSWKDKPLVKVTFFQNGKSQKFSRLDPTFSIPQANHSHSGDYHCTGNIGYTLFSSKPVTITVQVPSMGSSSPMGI

[3] = molecular target: T3, human FcγRIIa 167H (Sino Biological, His-tagged) (human, UniProt P12318 34-218, limits assumed); assay: as above
T3 construct: not shown: His tag
T3 sequence (looked up): T2 sequence (looked up) with R134H

[4] = molecular target: T4, human FcγRIIb (Sino Biological, His-tagged) (human, UniProt P31994 43-217, limits assumed); assay: as above
T4 construct: not shown: His tag
T4 sequence (looked up): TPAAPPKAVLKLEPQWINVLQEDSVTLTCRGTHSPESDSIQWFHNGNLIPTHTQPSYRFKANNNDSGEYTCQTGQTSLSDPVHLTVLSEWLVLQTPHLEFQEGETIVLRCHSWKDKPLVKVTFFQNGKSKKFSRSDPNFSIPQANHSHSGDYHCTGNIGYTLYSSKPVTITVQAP

[5] = molecular target: T5, human FcγRIIIa 176F (Sino Biological, His-tagged) (human, UniProt P08637 17-208); assay: as above
T5 construct: not shown: His tag
T5 sequence (P08637 17-208 limits assumed): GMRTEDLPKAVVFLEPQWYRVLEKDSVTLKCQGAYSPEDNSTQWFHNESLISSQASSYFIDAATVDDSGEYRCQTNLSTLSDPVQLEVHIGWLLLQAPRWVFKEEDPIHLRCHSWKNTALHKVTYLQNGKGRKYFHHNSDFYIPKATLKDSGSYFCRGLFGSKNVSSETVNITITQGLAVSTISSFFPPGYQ

[6] = molecular target: T6, human FcγRIIIa 176V (Sino Biological, His-tagged) (human, UniProt P08637 17-208); assay: as above
T6 construct: not shown: His tag
T6 sequence (P08637 17-208 F176V limits assumed): as the sequence (P08637 17-208 limits assumed) above, with F160V counted along it

[7] = molecular target: T7, human FcγRIIIb (Sino Biological, His-tagged) (human, UniProt O75015 17-200, limits assumed); assay: as above
T7 construct: not shown: His tag
T7 sequence (O75015 17-200 limits assumed): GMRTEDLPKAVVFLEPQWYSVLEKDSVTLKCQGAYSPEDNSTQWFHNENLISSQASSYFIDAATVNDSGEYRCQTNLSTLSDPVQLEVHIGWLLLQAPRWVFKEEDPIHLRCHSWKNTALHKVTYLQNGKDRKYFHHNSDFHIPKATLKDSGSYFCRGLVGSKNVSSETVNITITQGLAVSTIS

[8] = molecular target: T8, prostate-specific membrane antigen (PSMA) (R&D Systems) (UniProt Q04609 44-750); assay: Biacore multi-cycle kinetics, antibody captured on Protein G chip, PSMA analyte 1.5625-25 nM
T8 construct: Soluble analyte in the Biacore assay
T8 sequence (Q04609 44-750 limits assumed): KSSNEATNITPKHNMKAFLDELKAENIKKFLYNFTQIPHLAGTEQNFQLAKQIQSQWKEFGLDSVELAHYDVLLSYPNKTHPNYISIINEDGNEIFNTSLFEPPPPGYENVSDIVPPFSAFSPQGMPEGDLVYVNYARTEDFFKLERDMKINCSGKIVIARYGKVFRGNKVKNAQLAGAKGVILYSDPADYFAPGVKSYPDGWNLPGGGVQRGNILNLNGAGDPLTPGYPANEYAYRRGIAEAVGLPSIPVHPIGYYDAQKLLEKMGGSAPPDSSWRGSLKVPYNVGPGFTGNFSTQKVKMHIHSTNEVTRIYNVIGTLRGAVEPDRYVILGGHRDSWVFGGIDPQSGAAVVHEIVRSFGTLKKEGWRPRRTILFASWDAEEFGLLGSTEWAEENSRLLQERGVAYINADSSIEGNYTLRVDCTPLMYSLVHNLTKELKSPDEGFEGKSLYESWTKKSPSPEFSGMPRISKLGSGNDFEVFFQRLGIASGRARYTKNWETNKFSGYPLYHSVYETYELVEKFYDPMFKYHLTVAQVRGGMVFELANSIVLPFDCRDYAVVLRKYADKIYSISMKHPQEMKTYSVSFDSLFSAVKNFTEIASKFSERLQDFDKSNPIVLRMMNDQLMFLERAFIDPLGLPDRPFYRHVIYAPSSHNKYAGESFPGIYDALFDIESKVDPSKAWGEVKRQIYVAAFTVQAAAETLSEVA

binding result [1]: binds
binding result [2]: binds
binding result [3]: binds
binding result [4]: binds
binding result [5]: binds
binding result [6]: binds
binding result [7]: binds
B1: ANT4044 IgG1 (H310A, H435Q) (antibody)
heavy: not shown
light: DIQMTQSPSTLSASVGDRVTITCKASQDVGTAVDWYQQKPGQAPKLLIYWASTRHTGVPDRFSGSGSGTDFTLTISRLQPEDFAVYYCQQYNSYPLTFGQGTKVDIKRTVAAPSVFIFPPSDEQLKSGTASVVCLLNNFYPREAKVQWKVDNALQSGNSQESVTEQDSKDSTYSLSSTLTLSKADYEKHKVYACEVTHQGLSSPVTKSFNRGEC
notes: also called ANT4044-IgG1-2M; ANT4044-FcRn

binding result [8]: binds
B2: ANT4044-A2 IgG1 (antibody)
heavy: not shown
light: B1 light
notes: also called ANT4044-A2 expressed as unmodified IgG1

binding result [8]: binds
B3: ANT4044-A2 IgG4 (S228P, L235E, H310A, H435Q) (antibody)
heavy: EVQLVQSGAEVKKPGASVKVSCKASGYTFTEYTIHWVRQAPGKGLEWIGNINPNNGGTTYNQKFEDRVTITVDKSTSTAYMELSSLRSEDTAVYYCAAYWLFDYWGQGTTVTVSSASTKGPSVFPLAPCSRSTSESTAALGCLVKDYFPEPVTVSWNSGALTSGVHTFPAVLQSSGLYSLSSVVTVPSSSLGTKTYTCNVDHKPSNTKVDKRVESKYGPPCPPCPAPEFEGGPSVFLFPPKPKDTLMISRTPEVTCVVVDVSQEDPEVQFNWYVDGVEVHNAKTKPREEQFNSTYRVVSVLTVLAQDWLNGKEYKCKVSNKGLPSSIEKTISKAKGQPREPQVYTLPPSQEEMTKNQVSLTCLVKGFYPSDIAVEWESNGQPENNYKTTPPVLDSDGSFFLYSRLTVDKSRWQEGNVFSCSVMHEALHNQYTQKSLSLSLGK
light: B1 light
notes: also called ANT4044-A2 RADmAb IgG4

binding result [8]: binds
binding result [1]: binds
binding result [2]: binds
binding result [3]: binds
binding result [4]: binds
binding result [5]: binds
binding result [6]: binds
binding result [7]: binds
B4: ANT4044-A2 IgG1 (H310A, H435Q) (antibody)
heavy: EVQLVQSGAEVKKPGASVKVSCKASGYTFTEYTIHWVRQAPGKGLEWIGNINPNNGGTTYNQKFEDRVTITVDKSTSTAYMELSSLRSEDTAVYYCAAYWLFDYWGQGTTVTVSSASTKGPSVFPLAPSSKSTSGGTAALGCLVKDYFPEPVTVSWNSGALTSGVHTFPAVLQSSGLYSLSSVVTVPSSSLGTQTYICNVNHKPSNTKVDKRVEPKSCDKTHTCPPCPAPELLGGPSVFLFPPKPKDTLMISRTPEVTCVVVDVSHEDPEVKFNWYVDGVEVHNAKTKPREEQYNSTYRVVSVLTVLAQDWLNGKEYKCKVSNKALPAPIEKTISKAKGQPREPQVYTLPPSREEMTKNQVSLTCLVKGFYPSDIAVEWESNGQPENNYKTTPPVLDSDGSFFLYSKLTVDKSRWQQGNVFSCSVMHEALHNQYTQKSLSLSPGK
light: B1 light
notes: also called ANT4044-A2 RADmAb IgG1
